According to the DeepSol protein solubility set:

Experiment: soluble on expression in E. coli; label from the status in PepcDB or PDB records

Sequence | soluble on expression in E. coli
MSLAKVLVIDEDRSTLARLELLLTKDGYETVTASTGTDGLNRYVERYPDLVILDVFLSDVGGFTVLEELLEENEQAMVILMTAQLDMETAIRAMKLGAFDYVPKTADMAELLSVVHKASNTLETDRQQGGLSGEAFRNYKAGDIIGAGREMREIFKMVGVLSRSRATVLIEGESGTGKELVAKVIHKHTSSNEPFIAVNCSAIVETLLESELFGHEKGSFTSAFNRQLGKFELGRYGTVFLDEISEMSINLQAKLLRVLQEMEFERVGGKDKIQVHARIITATNKNLRTLVREGKFRADLYYRLNIVSLKIPPLRERQEDIPLLVNHLIAKIGRDLSRRISGVSEEVMEAFLRYTWPGNVRELENLLVRAGVMAKGRILDKSDFPELFKESGEGHHHHHH | not soluble
SLTVFQPLVPPDWKMNLREGSLYAQVAFSAAAGQGFEAGGHGVLKGGSAWMPDNQINGVDFVLPFRFSDGHWQLGIRRPVSLRIGEIVNQVTARNLTADLQGTWPWSEANPLQLSDVSVDLLGGKLTLLQLRMPQRDPALIRLQHISSSELTSAVKVKQFAMSGAVSGALPLWLENNQWIIHDGWLRNDGPMTLRLDKDTADALVADNVSAGAAINWLRYMEISRSWTQINLDNLGVLTLKASINGTSRVEGKSSTVHLNYAHEENIFDLWRSLRFGDNLQAWLEQNATL | not soluble
MGSDKIHHHHHHMQKPCIATPFSSYQETVPSLLQAVGAPGLLSRQSCILIKPNLVNASPPPVTLPVAACEALVAACRRWSKARIVIAEGSGDRDLSTGEIFQRLGYERLARRYDVDLVDLNNAELVELQNPLCEVFPTFMMPRMVMDSFVISAAVLKAHSLAEVTLSMKNMIGVAPPAYYQQGGHWKKSAFHAQMHRSIFELNRYRKPDLAFIDASVGLAEYHLGGPTCEPPVDKLLAGFDPVAVDAAGSELLGIPWQQVEHIRLADGLLGRAGK | not soluble
MAHHHHHHMGTLEAQTQGPGSMLKSVGVILVLSSPSGCGKTTVANKLLEKQKNNIVKSVSVTTRAARKGEKEGKDYYFVDREEFLRLCSNGEIIEHAEVFGNFYGVPRKNLEDNVDKGVSTLLVIDWQGAFKFMEMMREHVVSIFIMPPSMEELRRRLCGRRADDSEVVEARLKGAAFEISHCEAYDYVIVNEDIEETADRISNILRAEQMKTCRQVGLRELLESRFPIED | soluble
MSDISEKFWDASIEELKKGYVFDEEKEEYICLACGETFIKGVIYQDNQILYEAEKFVQLHIQNEHTSMFDYLLNMDKKFTGLTDLQKKMVQFFHMGLNDKEIVKEMDGGSTSTIRNHRFTLREKMKQAKVFLALMELSEEKSKVQTKFVPIHRTATMVDDRYNITEEENDEVLKAHFTEGLDGPLSKFPKKQKRKLIILRHLVKKFDSNKKYTEKEVNTVIENVYPDFVTLRRYLIEYGFLDRTADGSQYWVKL | not soluble
MVNLELIEVQEGKAKILIPKAESIYDSPVFYNPRMALNRDIVVVLLNILNPKIVLDALSATGIRGIRFALETPAEEVWLNDISEDAYELMKRNVMLNFDGELRESKGRAILKGEKTIVINHDDANRLMAERHRYFHFIDLDPFGSPMEFLDTALRSAKRRGILGVTATDGAPLCGAHPRACLRKYLAVPLRGELCHEVGTRILVGVIARYAAKYDLGIDVILAYYKDHYFRAFVKLKDGARKGDETLEKLGYIYFDDKTGKFELEQGFLPTRPNAYGPVWLGPLKDEKIVSKMVKEAESLSLARKKQALKLLKMIDQELDIPLFYDTHAIGRRLKIETKKVEEIISALREQGYEATRTHFSPTGIKTSAPYEVFIETIKRI | soluble
MSLTARVIALDLDGTLLTPHKTLLPSSLDALSRAKEAGFQLIIVTGRHHVAIHPFYQALALETPAICCNGTYLYDYQAKTVLDADPMPVDKALQLIDLLDEHQIHGLMYVDDAMLYEHPTGHVVRTSRWAQTLPPEQRPTFAQVSSLAQAARDVNAVWKFALTDEDIPKLQRFGQHVEQALGLECEWSWHDQVDIARKGNSKGKRLTQWIEAQGGSMKNVIAFGDNYNDISMLEAAGTGVAMGNADEAVKARADVVIGDNTTDSIAKFIYTHLLEGHHHHHH | soluble
MGGSHHHHHHGMASMTGGQQMGRTLYDDDDKDRWGSMNYVIIGGDAAGMSAAMQIVRNDENANVVTLEKGEIYSYAQCGLPYVISGAIASTEKLIARNVKTFRDKYGIDAKVRHEVTKVDTEKKIVYAEHTKTKDVFEFSYDRLLIATGVRPVMPEWEGRDLQGVHLLKTIPDAERILKTLETNKVEDVTIIGGGAIGLEMAETFVELGKKVRMIERNDHIGTIYDGDMAEYIYKEADKHHIEILTNENVKAFKGNERVEAVETDKGTYKADLVLVSVGVKPNTDFLEGTNIRTNHKGAIEVNAYMQTNVQDVYAAGDCATHYHVIKEIHDHIPIGTTANKQGRLAGLNMLDKRRAFKGTLGTGIIKFMNLTLARTGLNEKEAKGLHIPYKTVKVDSTNMAGYYPNAKPLYLKLLYRSDTKQLLGGQVIGEEGVDKRIDVIAMALFNKMSIHDLEDVDLSYAPPYNSVWDPIQQAARRAE | soluble
MHKNLFHWLMERGYQVLVEKEVAITLELPFEHLATLEEIGHRAQLAIVIGGDGNMLGRARVLAKYDIPLIGINRGNLGFLTDIDPKNAYSQLEACLERGEFFVEERFLLEAKIERASEIVSTSNAVNEAVIHPAKIAHMIDFHVYINDKFAFSQRSDGLIVSTPTGSTAYSLSAGGPILTPNLNAIALVPMFPHTLTSRPLVVDGDSKISIRFAEHNTSQLEVGCDSQITLPFTPDDVVHIQKSEHKLRLLHLKIIIITMC | soluble
MNSAHRSSLKKRPGPQDDRRVSFASPVSSSQKTAAVTVAAQTKQPAKAKNLRTMHSTPKKSKPAHDVADIISLVSKQSDILDDVSEIEHKMIKQAKMTQDLTMELANSIERIANMALAESKLSDQMEKQSKKLISLEGKTKELVEKANNWSKTLENRVDARSHHSTCLNDVQAAIKIINNAKINNDGFSEDFSAHYDKLLDLVETLEPWADKL | soluble
MRRKIMMATLIVIAVNFIWSGQPVKACTRAVYIGPDNMVITGRTMDWKEDIQSNLYLFPRGIKRAGYNKGNTVEWISKYGSIVATGYDIGTCDGMNEKGLVASLLFLPESIYVRPNDTRPVMGISIWTQYVLDNFATVSEAVEELKKQTFRIDAPDMPNGSASTLHMAITDETGNSAVLEYIDGNLIIHEGKEYQVMTNSPRYDLQLAVNDYWKEVGGLNMLPGTNRSSDRFVRASFYIHAIPQTSDAKIAVPSVLSVMRNVSVPFGITTLDKPYISSTRWRSVSDQKNRVYYFESTLTPNLFWIDLHKVDFSPNASIKKLSLTHGEVYAGDVVKDFKDSRSFTFMFELPK | not soluble
MKHITIIGAGLAGTLCGLYLARRGYEVELFESRPDIRNSPTDYGRSINLALSCRGITALKAMNLLSEVNKIMVPMRARAIHEANGEVHYQPFGRYIDEYINAISRSDLNALLLNKAELCPNIKLHFNMKLHSLDIHNKKIKFENKNGDFVEASYHRLIGADGAPSHVRDMLKNEGIVSASRDFLSHGYKELSISKKHTKGMAREHLHLWPRDSFMLLGNPNPDDSITGSLFLANEGKDSFAELNNEEKLHLFFKTQFPDAYAAMPNLVQEFFGNPTGHLSTIQCSPWYYKDECLLIGDAAHGIIPFFGQGMNSAFEDCRILDELLDEYQDDWSRVNPLFYEQRKVNTDAIAKMSMDNYHEIHSDIRNPKFILQKQIERELMLRYPEHYVSMHVLVMFTNTPYAKAMAIGELQSGLLEQICFPITDIKELNWQEVEKLLGIYDKKLAKIILEHHHHHH | soluble
